This note sets out measurements from paper PMC4634331, “Single-molecule spectroscopy exposes hidden states in an enzymatic electron relay” (Nature Communications, 2015).

Substrate in this data set: OC(CS)C(O)CS
As to the kind of experiment: oxygen consumption, Clark-type oxygen electrode. The class given is biochemical, Trypanosoma brucei. The following applies: O2 as electron acceptor, air-saturated, 25 °C, 50 nM enzyme, Michaelis-Menten fit of data up to 1 mM DTT (turnover rises beyond the fit above 1 mM).

What is called Km is the substrate concentration at which the rate is half of its maximum.

B1: TbQSOX (Trypanosoma brucei brucei TREU927) (protein)
chain: SVAQVATGSPRPGLFHLDSSVVDLSGDDFSRVHRVAPLCPWIVLFYNDGCGACRRYASTFSKFAGGLKVEHGKDALQIATAAAVNCASEVDLCRKYDINFVPRLFFFYPRDSCRSNEECGTSSLEHVAFENSHLEVDELESEVRRLVNKHMVVDDSLKERCIDMHFKLYTSKEELVKRSVSSTDESGRFVETTELYATDIAGAFFSAMHYDVSLVGTEPRERLTALEDFVLLVKDSLPSIGADGVVSALESITAERPFTVASWQDAVVKSGIPFDGSPRNVRWRTCRGSSPQYRGFPCGMWLLLHALTVNTPADRNVLEVIQNYIRYFFSCKECRDHFIQFNFSPNEDPVLQLWRAHNNVNARLANVKDGADPLVPKRQFPTLEACTECYDGAGNFIEAHVTGFLKQRYLWDPKAVGLMESNDDLNEVDPASKDANVGRNVESSGKGKGDGGARGNSKEVRSDHAG
On to B1, for which the Km was 65 ± 10 µM.
